Laboratory results reported in PMC6212398 (2018).
Like-named read-outs stand apart in the source and are kept apart here.

Experiments:
Experiment in all cases: ITC
[1] = molecular target: T1, Hsp27 alpha-crystallin domain (ACD, residues Q80–S176) (human, UniProt P04792 80-176)
[2] = molecular target: Hsp27 GPG (isoleucine and valine of the IPV motif mutated to glycine) (human, UniProt P04792 1-205, isoleucine of the IPV (Ile179 as printed in p-0007) to glycine)
[3] = molecular target: T1, Hsp27 alpha-crystallin domain (ACD, …); remark: listed apart in the source

T1 sequence (P04792 80-176): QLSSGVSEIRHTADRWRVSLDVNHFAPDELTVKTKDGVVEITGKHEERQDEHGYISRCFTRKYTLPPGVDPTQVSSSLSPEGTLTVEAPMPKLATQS
Chain of Hsp27 GPG (isoleucine and valine of the IPV motif mutated to glycine) (P04792 other isoform, or with tags, fused parts or gaps with the stated changes): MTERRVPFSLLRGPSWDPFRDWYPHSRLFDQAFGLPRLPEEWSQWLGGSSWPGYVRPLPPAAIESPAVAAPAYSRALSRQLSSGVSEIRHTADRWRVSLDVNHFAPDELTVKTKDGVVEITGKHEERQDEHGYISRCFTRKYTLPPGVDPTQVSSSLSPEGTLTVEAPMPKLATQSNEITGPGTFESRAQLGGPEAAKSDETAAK

Binder	Kd [1]	Kd [2]	Kd [3]
EITIAVTHE [Hsp27 IPV H peptide with the second X residue (Pro) of IXIXV mutated to alanine (EITIAVTHE)]	4.23 µM	–	–
EITIPVAHE (synthetic 9-mer; alanine-scan variant of the His-containing IPV peptide … (gives EITIPVAHE). The T184 label fits UniProt numbering, not the shifted numbering printed in the text. Termini not stated) [T184A]	9.43 µM	–	–
EITIPVTHE [Hsp27 IPV H peptide (EITIPVTHE)]	–	6.8 µM	7.3 µM
EITAPVTHE (EITAPVTHE. The paper numbers the peptide from E176, so printed Ile179 (I of IPV) is UniProt I181. Peptide termini chemistry is not stated.) [Hsp27 IPV H peptide with Ile179 mutated to alanine]	12.6 µM	–	–
